From patent publication US6362395 (WASHINGTON STATE UNIVERSITY RESEARCH FOUNDATION, dated 2002)

Molecular target: calmodulin (unlabeled, as used in the gel mobility-shift and kinase assays of Example 2) (spinach, UniProt P04353 2-149)
Experiment: gel mobility-shift, non-denaturing PAGE, 0.5 mM CaCl2

KLRAAAIASVLSS (peptide, UniProt Q43531 328-340, looked up) [synthetic peptide CCaMK 328-340]: no binding.
